# Measurements published in paper PMC10099132, “Sequence and Structural Motifs Controlling the Broad Substrate Specificity of the Mycobacterial Hormone-Sensitive Lipase LipN” (ACS Omega, 2023).
# B1: MmLipN (LipN from M. marinum) (Mycobacterium marinum M) (protein)
# chain: MTNSLPGETDLHPETVHATMSWLSRVQNTVTVVGAKVIPWVPDVAKRLITRGRSVIIDGNTLDPALQLMLSGMRVVGLDGLVIDDDLAASRAHMREAMLGFPGPQIHVDVEELTLPGPAGDISARHYRPPGDAAAPLLVFYHGGGWALGDLDTHDAVCRLTCRDAGIHVLAIDYRLSPEDRAPAAIDDAFAAFEWAHAHAAELGALPGRVAVGGDSAGGNLAAVVSQLARDSGGPAPIFQWLIYPRTDFAGRTRSASLFARGFLLTKRDIDWFHSQYLKGSGIEPTDPRVSPLRAESLAGLAPALIAVAGFDPLRDEGENYATALRAAGTPVDLRAMGSLTHGFLNLFPLGGGCAAATSELISALRAHLTRV
# notes: E. coli LOBSTR (DE3); Ni-NTA
# What was measured:
# Assay in all cases: purified protein, by the assay type
# [1] = substrate: CC1(C(=O)OCOc2ccc3c(c2)Oc2cc(OCOC(=O)C4(C)CC4(Cl)Cl)ccc2C32OC(=O)c3ccccc32)CC1(Cl)Cl; parameters: fluorogenic ester hydrolysis, fluorescein release, Michaelis-Menten fit of initial rates
# Procedure: (§1) The enzyme kinetic activity of LipN was assayed via the hydrolysis of the fluorogenic substrates (Figure 1) in accordance with past kinetic analysis of mycobacterial serine hydrolases.[37],[38],[40],[66],[67] Kinetic assays were run in triplicate on black 96-well plates in a Synergy H1 Hybrid Reader (BioTek). Fluorogenic ester substrates (10 mM in DMSO) were diluted to a starting concentration of 100 μM in PBS containing acetylated BSA (Sigma; 0.1 mg/mL). Eight serial dilutions (1:1; 120 μL into 240 μL total volume) of each substrate were made using PBS–BSA. Fluorogenic substrate dilutions (95 μL) were then transferred to opaque 96-well microplate (Corning, Lowell, MA). Reactions were initiated by quickly adding enzyme (5 μL, 3.0 nM final concentration) to each assay well, mixed, and the fluorescence counts measured every 26–30 s for 4.5 min with a BioTek H1 Synergy multimode plate reader (Biotek Instruments; Winooski, VT) at ambient temperature. The instrument measured relative fluorescence through excitation at λ = 485 nm and emission at λ = 520 nm. The fluorescence change was converted to molar concentrations using a fluorescein standard curve (300–2.3 nM), whose fluorescence was measured simultaneously. The initial rates of the enzyme-catalyzed reactions were measured in triplicate and plotted versus fluorogenic substrate concentration. […] (A) Activation of fluorogenic ester substrates by MmLipN. Each of the substrates is composed of diacyloxymethyl ether fluorescein with varying R-groups. The differing R-groups have been organized into classes and colored based on chemical functionality. All of the substrates were synthesized as described previously.[38],[43] Substrates 6, 10–11, 14–15, 20, 23–30, and 33 were newly synthesized for this characterization of MmLipN. Detailed synthetic characterization is provided in the Supporting Information. (B) Global comparison of the catalytic specificity (kcat/KM) of MmLipN against each of the 33 substrates with ester classes labeled. Catalytic efficiency values (kcat/Km) are given ± SD based on at least three independent kinetic replicates. (C, D) Kinetic activity of MmLipN against high-activity ester substrates 1 (black circles), 7 (blue squares), and 20 (red diamonds) and low-activity ester substrates 12 (green circles), 16 (red squares), 27 (purple diamonds), and 31 (orange squares). Low- and high-activity substrates display classic Michaelis–Menten kinetics with MmLipN and activity above background hydrolysis rates. Traces colored based on ester classification from (A, B). All measurements were completed in at least triplicate and shown ± SD.
# [2] = substrate: CCC(=O)OCOc1ccc2c(c1)Oc1cc(OCOC(=O)CC)ccc1C21OC(=O)c2ccccc21; parameters: fluorogenic ester hydrolysis, fluorescein release, Michaelis-Menten fit of initial rates
# Procedure: as §1
# [3] = substrate: COCC(=O)OCOc1ccc2c(c1)Oc1cc(OCOC(=O)COC)ccc1C21OC(=O)c2ccccc21; parameters: fluorogenic ester hydrolysis, fluorescein release, Michaelis-Menten fit of initial rates
# Procedure: as §1
# [4] = substrate: N#CC1(C(=O)OCOc2ccc3c(c2)Oc2cc(OCOC(=O)C4(C#N)CC4)ccc2C32OC(=O)c3ccccc32)CC1; parameters: fluorogenic ester hydrolysis, fluorescein release, Michaelis-Menten fit of initial rates
# Procedure: as §1
# [5] = substrate: N#CCC(=O)OCOc1ccc2c(c1)Oc1cc(OCOC(=O)CC#N)ccc1C21OC(=O)c2ccccc21; parameters: fluorogenic ester hydrolysis, fluorescein release, Michaelis-Menten fit of initial rates
# Procedure: as §1
# [6] = substrate: O=C1OC2(c3ccc(OCOC(=O)C4(c5ccccc5)CC4)cc3Oc3cc(OCOC(=O)C4(c5ccccc5)CC4)ccc32)c2ccccc21; parameters: fluorogenic ester hydrolysis, fluorescein release, Michaelis-Menten fit of initial rates
# Procedure: as §1
# [7] = substrate: CC(=O)Oc1ccc([N+](=O)[O-])cc1; parameters: p-nitrophenyl ester hydrolysis, absorbance at 412 nm, Michaelis-Menten fit
# Description: (§2) (A) Classic p-nitrophenyl ester substrates were used as conformation for fluorogenic substrate measurements (Figure 1). (B) Catalytic efficiency comparison of MmLipN against p-nitrophenyl substrates. Catalytic efficiency values (kcat/Km) are given ± SD. (C, D) Kinetic activity of MmLipN against (C) short alkyl ester substrates: p-nitrophenyl acetate (C2) and p-nitrophenyl butyrate (C4) and (D) longer alkyl ester substrates: p-nitrophenyl valerate ([…]), p-nitrophenyl octonoate (C8), and p-nitrophenyl myristate (C14). Data points were fitted to the Michaelis–Menten equation and are shown ± SD.
# [8] = substrate: CCCCC(=O)Oc1ccc([N+](=O)[O-])cc1; parameters: p-nitrophenyl ester hydrolysis, absorbance at 412 nm, Michaelis-Menten fit
# Description: as §2
# [9] = substrate: CCCCCCCC(=O)Oc1ccc([N+](=O)[O-])cc1; parameters: p-nitrophenyl ester hydrolysis, absorbance at 412 nm, Michaelis-Menten fit
# Description: as §2
# [10] = substrate: CCCCCCCCCCCCCC(=O)Oc1ccc([N+](=O)[O-])cc1; parameters: p-nitrophenyl ester hydrolysis, absorbance at 412 nm, Michaelis-Menten fit
# Description: as §2
protein,measurement,setting,value
B1,Km,[1],0.87 ± 1.1 µM
same,kcat,[1],1.1e-05 ± 3e-05 s⁻¹
same,kcat/Km,[1],12 ± 19 M⁻¹ s⁻¹
same,Km,[2],4.2 ± 0.5 µM
same,kcat,[2],0.18 ± 0.06 s⁻¹
same,kcat/Km,[2],42000 ± 15000 M⁻¹ s⁻¹
same,Km,[3],2.6 ± 1.1 µM
same,kcat,[3],0.11 ± 0.12 s⁻¹
same,kcat/Km,[3],40000 ± 25000 M⁻¹ s⁻¹
same,Km,[4],1.7 ± 1.1 µM
same,kcat,[4],0.0012 ± 0.0018 s⁻¹
same,kcat/Km,[4],670 ± 590 M⁻¹ s⁻¹
same,Km,[5],3.1 ± 0.6 µM
same,kcat,[5],0.015 ± 0.008 s⁻¹
same,kcat/Km,[5],4900 ± 1400 M⁻¹ s⁻¹
same,Km,[6],13 ± 8 µM
same,kcat,[6],5.8e-05 ± 0.00014 s⁻¹
same,kcat/Km,[6],4.4 ± 5.4 M⁻¹ s⁻¹
same,Km,[7],2400 ± 1200 µM
same,kcat,[7],94 ± 8 s⁻¹
same,kcat/Km,[7],39000 ± 10000 M⁻¹ s⁻¹
same,Km,[8],250 ± 70 µM
same,kcat,[8],15 ± 1 s⁻¹
same,kcat/Km,[8],59000 ± 8000 M⁻¹ s⁻¹
same,Km,[9],410 ± 330 µM
same,kcat,[9],1.1 ± 0.2 s⁻¹
same,kcat/Km,[9],2700 ± 1100 M⁻¹ s⁻¹
same,Km,[10],120 ± 50 µM
same,kcat,[10],0.28 ± 0.02 s⁻¹
same,kcat/Km,[10],2300 ± 400 M⁻¹ s⁻¹
